The format of the test is binding. The conditions noted are these: for Kd: FP, 1 nM F-STX, 25° C., errors S.D.; for ΔΔG: ΔΔG = RT ln(Kd mutant or XSxph/Kd RcSxph), T = 298K, FP with F-STX.

B1: F784Y: RcSxph STX binding pocket mutant F784Y (protein)
chain: MAPTFQTALFFTIISLSFAAPNAKQVRWCAISDLEQKKCNDLVGSCNVPDITLVCVLRSSTEDCMTAIKDGQADAMFLDSGEVYEASKDPYNLKPIIAEPYSSNRDLQKCLKERQQALAKKMIGHYIPQCDEKGNYQPQQCHGSTGHCWCVNAMGEKISGTNTPPGQTRATCERHELPKCLKERQVALGGDEKVLGRFVPQCDEKGNYEPQQFHGSTGYSWCVNAIGEEIAGTKTPPGKIPATCQKHDLVTTCHYAVAMVKKSSAFQFNQLKGKRSCHSGVSKTDGWKALVTVLVEKKLLSWDGPAKESIQRAMSKFFSVSCIPGATQTNLCKQCKGEEGKNCKNSHDEPYYGNYGAFRCLKEDMGDVAFLRSTALSDEHSEVYELLCPDNTRKPLNKYKECNLGTVPAGTVVTRKISDKTEDINNFLMEAQKRQCKLFSSAHGKDLMFDDSTLQLALLSSEVDAFLYLGVKLFHAMKALTGDAHLPSKNKVRWCTINKLEKMKCDDWSAVSGGAIACTEASCPKGCVKQILKGEADAVKLEVQYMYEALMCGLLPAVEEYHNKDDFGPCKTPGSPYTDFGTLRAVALVKKSNKDINWNNIKGKKSCHTGVGDIAGWVIPVSLIRRQNDNSDIDSFFGESCAPGSDTKSNLCKLCIGDPKNSAANTKCSLSDKEAYYGNQGAFRCLVEKGDVAFVPHTVVFENTDGKNPAVWAKNLKSEDFELLCLDGSRAPVSNYKSCKLSGIPPPAIVTREESISDVVRIVANQQSLYGRKGFEKDMFQLFSSNKGNNLLFNDNTQCLITYDRQPKDIMEDYFGKPYYTTVYGASRSAMSSELISACTIKHC
Consider B1, for which binding was characterised by a dissociation constant (Kd) of 13.8 ± 1 nM and the “ΔΔG” value came out at 0.37 kcal/mol.

B2: D785A: RcSxph STX binding pocket mutant D785A (protein)
chain: MAPTFQTALFFTIISLSFAAPNAKQVRWCAISDLEQKKCNDLVGSCNVPDITLVCVLRSSTEDCMTAIKDGQADAMFLDSGEVYEASKDPYNLKPIIAEPYSSNRDLQKCLKERQQALAKKMIGHYIPQCDEKGNYQPQQCHGSTGHCWCVNAMGEKISGTNTPPGQTRATCERHELPKCLKERQVALGGDEKVLGRFVPQCDEKGNYEPQQFHGSTGYSWCVNAIGEEIAGTKTPPGKIPATCQKHDLVTTCHYAVAMVKKSSAFQFNQLKGKRSCHSGVSKTDGWKALVTVLVEKKLLSWDGPAKESIQRAMSKFFSVSCIPGATQTNLCKQCKGEEGKNCKNSHDEPYYGNYGAFRCLKEDMGDVAFLRSTALSDEHSEVYELLCPDNTRKPLNKYKECNLGTVPAGTVVTRKISDKTEDINNFLMEAQKRQCKLFSSAHGKDLMFDDSTLQLALLSSEVDAFLYLGVKLFHAMKALTGDAHLPSKNKVRWCTINKLEKMKCDDWSAVSGGAIACTEASCPKGCVKQILKGEADAVKLEVQYMYEALMCGLLPAVEEYHNKDDFGPCKTPGSPYTDFGTLRAVALVKKSNKDINWNNIKGKKSCHTGVGDIAGWVIPVSLIRRQNDNSDIDSFFGESCAPGSDTKSNLCKLCIGDPKNSAANTKCSLSDKEAYYGNQGAFRCLVEKGDVAFVPHTVVFENTDGKNPAVWAKNLKSEDFELLCLDGSRAPVSNYKSCKLSGIPPPAIVTREESISDVVRIVANQQSLYGRKGFEKDMFQLFSSNKGNNLLFNDNTQCLITFARQPKDIMEDYFGKPYYTTVYGASRSAMSSELISACTIKHC
Take B2: the affinity, expressed as Kd, was 19.5 ± 2.5 nM and the “ΔΔG” value was found to be 0.57 kcal/mol.

B3: F784L: RcSxph STX binding pocket mutant F784L (protein)
chain: MAPTFQTALFFTIISLSFAAPNAKQVRWCAISDLEQKKCNDLVGSCNVPDITLVCVLRSSTEDCMTAIKDGQADAMFLDSGEVYEASKDPYNLKPIIAEPYSSNRDLQKCLKERQQALAKKMIGHYIPQCDEKGNYQPQQCHGSTGHCWCVNAMGEKISGTNTPPGQTRATCERHELPKCLKERQVALGGDEKVLGRFVPQCDEKGNYEPQQFHGSTGYSWCVNAIGEEIAGTKTPPGKIPATCQKHDLVTTCHYAVAMVKKSSAFQFNQLKGKRSCHSGVSKTDGWKALVTVLVEKKLLSWDGPAKESIQRAMSKFFSVSCIPGATQTNLCKQCKGEEGKNCKNSHDEPYYGNYGAFRCLKEDMGDVAFLRSTALSDEHSEVYELLCPDNTRKPLNKYKECNLGTVPAGTVVTRKISDKTEDINNFLMEAQKRQCKLFSSAHGKDLMFDDSTLQLALLSSEVDAFLYLGVKLFHAMKALTGDAHLPSKNKVRWCTINKLEKMKCDDWSAVSGGAIACTEASCPKGCVKQILKGEADAVKLEVQYMYEALMCGLLPAVEEYHNKDDFGPCKTPGSPYTDFGTLRAVALVKKSNKDINWNNIKGKKSCHTGVGDIAGWVIPVSLIRRQNDNSDIDSFFGESCAPGSDTKSNLCKLCIGDPKNSAANTKCSLSDKEAYYGNQGAFRCLVEKGDVAFVPHTVVFENTDGKNPAVWAKNLKSEDFELLCLDGSRAPVSNYKSCKLSGIPPPAIVTREESISDVVRIVANQQSLYGRKGFEKDMFQLFSSNKGNNLLFNDNTQCLITLDRQPKDIMEDYFGKPYYTTVYGASRSAMSSELISACTIKHC
As to B3, the affinity, expressed as Kd, was 48 ± 6.8 nM and the “ΔΔG” value stood at 1.11 kcal/mol.

B4: F784S: RcSxph STX binding pocket mutant F784S (protein)
chain: MAPTFQTALFFTIISLSFAAPNAKQVRWCAISDLEQKKCNDLVGSCNVPDITLVCVLRSSTEDCMTAIKDGQADAMFLDSGEVYEASKDPYNLKPIIAEPYSSNRDLQKCLKERQQALAKKMIGHYIPQCDEKGNYQPQQCHGSTGHCWCVNAMGEKISGTNTPPGQTRATCERHELPKCLKERQVALGGDEKVLGRFVPQCDEKGNYEPQQFHGSTGYSWCVNAIGEEIAGTKTPPGKIPATCQKHDLVTTCHYAVAMVKKSSAFQFNQLKGKRSCHSGVSKTDGWKALVTVLVEKKLLSWDGPAKESIQRAMSKFFSVSCIPGATQTNLCKQCKGEEGKNCKNSHDEPYYGNYGAFRCLKEDMGDVAFLRSTALSDEHSEVYELLCPDNTRKPLNKYKECNLGTVPAGTVVTRKISDKTEDINNFLMEAQKRQCKLFSSAHGKDLMFDDSTLQLALLSSEVDAFLYLGVKLFHAMKALTGDAHLPSKNKVRWCTINKLEKMKCDDWSAVSGGAIACTEASCPKGCVKQILKGEADAVKLEVQYMYEALMCGLLPAVEEYHNKDDFGPCKTPGSPYTDFGTLRAVALVKKSNKDINWNNIKGKKSCHTGVGDIAGWVIPVSLIRRQNDNSDIDSFFGESCAPGSDTKSNLCKLCIGDPKNSAANTKCSLSDKEAYYGNQGAFRCLVEKGDVAFVPHTVVFENTDGKNPAVWAKNLKSEDFELLCLDGSRAPVSNYKSCKLSGIPPPAIVTREESISDVVRIVANQQSLYGRKGFEKDMFQLFSSNKGNNLLFNDNTQCLITSDRQPKDIMEDYFGKPYYTTVYGASRSAMSSELISACTIKHC
Consider B4, for which the equilibrium dissociation constant (Kd) is 3240 ± 508 nM and the “ΔΔG” value amounted to 3.60 kcal/mol.

B5: F784A: RcSxph STX binding pocket mutant F784A (protein)
chain: MAPTFQTALFFTIISLSFAAPNAKQVRWCAISDLEQKKCNDLVGSCNVPDITLVCVLRSSTEDCMTAIKDGQADAMFLDSGEVYEASKDPYNLKPIIAEPYSSNRDLQKCLKERQQALAKKMIGHYIPQCDEKGNYQPQQCHGSTGHCWCVNAMGEKISGTNTPPGQTRATCERHELPKCLKERQVALGGDEKVLGRFVPQCDEKGNYEPQQFHGSTGYSWCVNAIGEEIAGTKTPPGKIPATCQKHDLVTTCHYAVAMVKKSSAFQFNQLKGKRSCHSGVSKTDGWKALVTVLVEKKLLSWDGPAKESIQRAMSKFFSVSCIPGATQTNLCKQCKGEEGKNCKNSHDEPYYGNYGAFRCLKEDMGDVAFLRSTALSDEHSEVYELLCPDNTRKPLNKYKECNLGTVPAGTVVTRKISDKTEDINNFLMEAQKRQCKLFSSAHGKDLMFDDSTLQLALLSSEVDAFLYLGVKLFHAMKALTGDAHLPSKNKVRWCTINKLEKMKCDDWSAVSGGAIACTEASCPKGCVKQILKGEADAVKLEVQYMYEALMCGLLPAVEEYHNKDDFGPCKTPGSPYTDFGTLRAVALVKKSNKDINWNNIKGKKSCHTGVGDIAGWVIPVSLIRRQNDNSDIDSFFGESCAPGSDTKSNLCKLCIGDPKNSAANTKCSLSDKEAYYGNQGAFRCLVEKGDVAFVPHTVVFENTDGKNPAVWAKNLKSEDFELLCLDGSRAPVSNYKSCKLSGIPPPAIVTREESISDVVRIVANQQSLYGRKGFEKDMFQLFSSNKGNNLLFNDNTQCLITADRQPKDIMEDYFGKPYYTTVYGASRSAMSSELISACTIKHC
On to B5, for which the dissociation constant Kd is 725 ± 109 nM and the “ΔΔG” value is 2.71 kcal/mol.

B6: F784C: RcSxph STX binding pocket mutant F784C (protein)
chain: MAPTFQTALFFTIISLSFAAPNAKQVRWCAISDLEQKKCNDLVGSCNVPDITLVCVLRSSTEDCMTAIKDGQADAMFLDSGEVYEASKDPYNLKPIIAEPYSSNRDLQKCLKERQQALAKKMIGHYIPQCDEKGNYQPQQCHGSTGHCWCVNAMGEKISGTNTPPGQTRATCERHELPKCLKERQVALGGDEKVLGRFVPQCDEKGNYEPQQFHGSTGYSWCVNAIGEEIAGTKTPPGKIPATCQKHDLVTTCHYAVAMVKKSSAFQFNQLKGKRSCHSGVSKTDGWKALVTVLVEKKLLSWDGPAKESIQRAMSKFFSVSCIPGATQTNLCKQCKGEEGKNCKNSHDEPYYGNYGAFRCLKEDMGDVAFLRSTALSDEHSEVYELLCPDNTRKPLNKYKECNLGTVPAGTVVTRKISDKTEDINNFLMEAQKRQCKLFSSAHGKDLMFDDSTLQLALLSSEVDAFLYLGVKLFHAMKALTGDAHLPSKNKVRWCTINKLEKMKCDDWSAVSGGAIACTEASCPKGCVKQILKGEADAVKLEVQYMYEALMCGLLPAVEEYHNKDDFGPCKTPGSPYTDFGTLRAVALVKKSNKDINWNNIKGKKSCHTGVGDIAGWVIPVSLIRRQNDNSDIDSFFGESCAPGSDTKSNLCKLCIGDPKNSAANTKCSLSDKEAYYGNQGAFRCLVEKGDVAFVPHTVVFENTDGKNPAVWAKNLKSEDFELLCLDGSRAPVSNYKSCKLSGIPPPAIVTREESISDVVRIVANQQSLYGRKGFEKDMFQLFSSNKGNNLLFNDNTQCLITCDRQPKDIMEDYFGKPYYTTVYGASRSAMSSELISACTIKHC
Turning to B6, the affinity, expressed as Kd, was 1510 ± 346 nM and the “ΔΔG” value turned out to be 3.15 kcal/mol.

The record behind these values is patent US20260034194A1, “PHARMACEUTICAL COMPOSITIONS AND METHODS OF TREATING PSP” (priority 2022, published 2026).
